Measured values from patent publication US20160340442A1.

Columns and labels:
MUC1 (human) [1] = molecular target: MUC1 (human) (UniProt P15941); assay: surface staining, flow cytometry, ME559203 cells; 2 µg antibody/sample
MUC1 (human) [2] = molecular target: MUC1 (human) (UniProt P15941); assay: flow cytometry, U266/Con siRNA cells (MUC1-positive)
MUC1 (human) [3] = molecular target: MUC1 (human) (UniProt P15941); assay: surface staining, flow cytometry, ZR-75-1 cells (second row); 2 µg antibody/sample
MUC1 (human) [4] = molecular target: MUC1 (human) (UniProt P15941); assay: surface staining, flow cytometry, K562 CML cells; 2 µg antibody/sample
MUC1 (human) [5] = molecular target: MUC1 (human) (UniProt P15941); assay: flow cytometry, K562/MUC1siRNA cells (MUC1 silenced, labelled MUC1-negative)
MUC1 (human) [6] = molecular target: MUC1 (human) (UniProt P15941); assay: flow cytometry, K562/Con siRNA cells (MUC1-positive)
MUC1 (human) [7] = molecular target: MUC1 (human) (UniProt P15941); assay: surface staining, flow cytometry, K562 CTL-siRNA cells; 2 µg antibody/sample; fixed samples kept at 4° C. for 4 days
MUC1 (human) [8] = molecular target: MUC1 (human) (UniProt P15941); assay: surface staining, flow cytometry, U266 MUC1-siRNA cells (MUC1 silenced); 2 µg antibody/sample
MUC1 (human) [9] = molecular target: MUC1 (human) (UniProt P15941); assay: surface staining, flow cytometry, primary breast cancer patient cells RG563999; 2 µg antibody/sample
MUC1 (human) [10] = molecular target: MUC1 (human) (UniProt P15941); assay: surface staining, flow cytometry, K562 MUC1-siRNA cells (MUC1 silenced); 2 µg antibody/sample
MUC1 (human) [11] = molecular target: MUC1 (human) (UniProt P15941); assay: surface staining, flow cytometry, KU812 CTL-siRNA cells; 2 µg antibody/sample
MUC1 (human) [12] = molecular target: MUC1 (human) (UniProt P15941); assay: surface staining, flow cytometry, RPMI8266 cells; 2 µg antibody/sample
MUC1 (human) [13] = molecular target: MUC1 (human) (UniProt P15941); assay: surface staining, flow cytometry, ZR-75-1 cells; 2 µg antibody/sample
MUC1 (human) [14] = molecular target: MUC1 (human) (UniProt P15941); assay: surface staining, flow cytometry, K562 cells; 2 µg antibody/sample
MUC1 (human) [15] = molecular target: MUC1 (human) (UniProt P15941); assay: flow cytometry, KU812/MUC1siRNA cells (MUC1 silenced, labelled MUC1-negative)
MUC1 (human) [16] = molecular target: MUC1 (human) (UniProt P15941); assay: surface staining, flow cytometry, ZR-75-1 cells (third row); 2 µg antibody/sample
MUC1 (human) [17] = molecular target: MUC1 (human) (UniProt P15941); assay: surface staining, flow cytometry, U266 CTL-siRNA cells (second block); 2 µg antibody/sample
MUC1 (human) [18] = molecular target: MUC1 (human) (UniProt P15941); assay: surface staining, flow cytometry, KU812 CTL-siRNA cells (second block); 2 µg antibody/sample
MUC1 (human) [19] = molecular target: MUC1 (human) (UniProt P15941); assay: flow cytometry, KU812/Con siRNA cells (MUC1-Positive)
MUC1 (human) [20] = molecular target: MUC1 (human) (UniProt P15941); assay: surface staining, flow cytometry, KU812 MUC1-siRNA cells (MUC1 silenced, second block); 2 µg antibody/sample
MUC1 (human) [21] = molecular target: MUC1 (human) (UniProt P15941); assay: surface staining, flow cytometry, KU812 cells; 2 µg antibody/sample
MUC1 (human) [22] = molecular target: MUC1 (human) (UniProt P15941); assay: surface staining, flow cytometry, MV4-11 cells; 2 µg antibody/sample
MUC1 (human) [23] = molecular target: MUC1 (human) (UniProt P15941); assay: surface staining, flow cytometry, U266 CTL-siRNA cells; 2 µg antibody/sample
MUC1 (human) [24] = molecular target: MUC1 (human) (UniProt P15941); assay: surface staining, flow cytometry, primary breast cancer patient cells RG563999 (second row); 2 µg antibody/sample
MUC1 (human) [25] = molecular target: MUC1 (human) (UniProt P15941); assay: surface staining, flow cytometry, KU812 CML cells; 2 µg antibody/sample
MUC1 (human) [26] = molecular target: MUC1 (human) (UniProt P15941); assay: surface staining, flow cytometry, KMS28PE cells; 2 µg antibody/sample
MUC1 (human) [27] = molecular target: MUC1 (human) (UniProt P15941); assay: surface staining, flow cytometry, U266 MUC1-siRNA cells (MUC1 silenced, second block); 2 µg antibody/sample
MUC1 (human) [28] = molecular target: MUC1 (human) (UniProt P15941); assay: surface staining, flow cytometry, KU812 MUC1-siRNA cells (MUC1 silenced); 2 µg antibody/sample
MUC1 (human) [29] = molecular target: MUC1 (human) (UniProt P15941); assay: flow cytometry, U266/MUC1siRNA cells (MUC1 silenced, labelled MUC1-negative)
MUC1 (human) [30] = molecular target: MUC1 (human) (UniProt P15941); assay: surface staining, flow cytometry, primary breast cancer patient cells JB564765; 2 µg antibody/sample
MUC1 (human) [31] = molecular target: MUC1 (human) (UniProt P15941); assay: surface staining, flow cytometry, MOLM-14 cells; 2 µg antibody/sample, PE-conjugated goat anti-mouse 2nd antibody
MUC1 (human) [32] = molecular target: MUC1 (human) (UniProt P15941); assay: surface staining, flow cytometry, U266 cells; 2 µg antibody/sample

MUC1 (human), sequence (P15941 24-1255): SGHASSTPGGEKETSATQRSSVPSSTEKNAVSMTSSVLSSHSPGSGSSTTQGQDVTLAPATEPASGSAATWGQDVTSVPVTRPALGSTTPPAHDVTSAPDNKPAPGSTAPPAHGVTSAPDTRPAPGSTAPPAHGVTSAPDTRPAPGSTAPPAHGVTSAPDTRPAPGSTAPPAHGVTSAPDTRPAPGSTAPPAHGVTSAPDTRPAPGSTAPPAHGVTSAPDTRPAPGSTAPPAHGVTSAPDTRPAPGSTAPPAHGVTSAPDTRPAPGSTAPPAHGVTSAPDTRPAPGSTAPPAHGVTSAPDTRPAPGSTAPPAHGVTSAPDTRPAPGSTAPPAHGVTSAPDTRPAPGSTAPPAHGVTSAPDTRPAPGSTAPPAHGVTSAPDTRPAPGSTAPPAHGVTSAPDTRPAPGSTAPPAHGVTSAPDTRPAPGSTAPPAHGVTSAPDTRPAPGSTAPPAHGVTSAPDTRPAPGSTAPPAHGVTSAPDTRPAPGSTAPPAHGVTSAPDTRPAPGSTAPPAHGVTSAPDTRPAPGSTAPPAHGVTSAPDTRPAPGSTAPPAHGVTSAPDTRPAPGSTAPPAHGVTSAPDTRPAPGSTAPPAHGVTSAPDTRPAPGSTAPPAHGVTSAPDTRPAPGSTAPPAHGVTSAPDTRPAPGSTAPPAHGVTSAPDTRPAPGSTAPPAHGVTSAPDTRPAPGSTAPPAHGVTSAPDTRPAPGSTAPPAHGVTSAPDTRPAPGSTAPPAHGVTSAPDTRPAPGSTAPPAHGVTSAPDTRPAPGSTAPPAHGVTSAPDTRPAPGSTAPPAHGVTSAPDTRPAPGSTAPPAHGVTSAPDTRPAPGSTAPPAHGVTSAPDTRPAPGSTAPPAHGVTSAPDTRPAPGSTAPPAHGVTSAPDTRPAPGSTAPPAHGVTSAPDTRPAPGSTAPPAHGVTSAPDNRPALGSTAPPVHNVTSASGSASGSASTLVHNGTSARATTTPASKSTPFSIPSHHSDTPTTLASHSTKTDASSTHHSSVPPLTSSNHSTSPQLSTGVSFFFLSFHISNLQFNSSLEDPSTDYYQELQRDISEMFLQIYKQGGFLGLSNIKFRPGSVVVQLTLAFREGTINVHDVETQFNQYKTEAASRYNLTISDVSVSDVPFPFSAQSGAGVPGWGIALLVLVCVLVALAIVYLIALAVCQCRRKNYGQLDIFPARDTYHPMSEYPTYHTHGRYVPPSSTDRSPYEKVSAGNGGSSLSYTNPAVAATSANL

flow cytometry value (unit not given) (MUC1 (human) [1]): 57 | flow cytometry value (unit not given) (MUC1 (human) [2]): 94.7 | flow cytometry value (unit not given) (MUC1 (human) [3]): 6.84 | flow cytometry value (unit not given) (MUC1 (human) [4]): 77.9 | flow cytometry value (unit not given) (MUC1 (human) [5]): 17.1 | flow cytometry value (unit not given) (MUC1 (human) [6]): 40.6 | flow cytometry value (unit not given) (MUC1 (human) [7]): 40.6 | flow cytometry value (unit not given) (MUC1 (human) [8]): 16.2 | flow cytometry value (unit not given) (MUC1 (human) [9]): 60.5 | flow cytometry value (unit not given) (MUC1 (human) [10]): 17.1 | flow cytometry value (unit not given) (MUC1 (human) [11]): 96.6 | flow cytometry value (unit not given) (MUC1 (human) [12]): 95 | flow cytometry value (unit not given) (MUC1 (human) [13]): 98.5 | flow cytometry value (unit not given) (MUC1 (human) [14]): 78.8 | flow cytometry value (unit not given) (MUC1 (human) [15]): 35.4 | flow cytometry value (unit not given) (MUC1 (human) [16]): 89.5 | flow cytometry value (unit not given) (MUC1 (human) [17]): 96.5 | flow cytometry value (unit not given) (MUC1 (human) [18]): 95.2 | flow cytometry value (unit not given) (MUC1 (human) [19]): 95.2 | flow cytometry value (unit not given) (MUC1 (human) [20]): 85.4 | flow cytometry value (unit not given) (MUC1 (human) [21]): 98.1 | flow cytometry value (unit not given) (MUC1 (human) [22]): 74.2 | flow cytometry value (unit not given) (MUC1 (human) [23]): 94.7 | flow cytometry value (unit not given) (MUC1 (human) [24]): 11.9 | flow cytometry value (unit not given) (MUC1 (human) [25]): 90.5 | flow cytometry value (unit not given) (MUC1 (human) [26]): 58.2 | flow cytometry value (unit not given) (MUC1 (human) [27]): 13.5 | flow cytometry value (unit not given) (MUC1 (human) [28]): 69.2 | flow cytometry value (unit not given) (MUC1 (human) [29]): 13.5 | flow cytometry value (unit not given) (MUC1 (human) [30]): 21.1 | flow cytometry value (unit not given) (MUC1 (human) [31]): 99.5 | flow cytometry value (unit not given) (MUC1 (human) [32]): 99.2
Substance: DF3 (antibody)
